B1: Zinc finger protein Aiolos (Homo sapiens), Q9UKT9 (parent)
chain: MEDIQTNAELKSTQEQSVPAESAAVLNDYSLTKSHEMENVDSGEGPANEDEDIGDDSMKVKDEYSERDENVLKSEPMGNAEEPEIPYSYSREYNEYENIKLERHVVSFDSSRPTSGKMNCDVCGLSCISFNVLMVHKRSHTGERPFQCNQCGASFTQKGNLLRHIKLHTGEKPFKCHLCNYACQRRDALTGHLRTHSVEKPYKCEFCGRSYKQRSSLEEHKERCRTFLQSTDPGDTASAEARHIKAEMGSERALVLDRLASNVAKRKSSMPQKFIGEKRHCFDVNYNSSYMYEKESELIQTRMMDQAINNAISYLGAEALRPLVQTPPAPTSEMVPVISSMYPIALTRAEMSNGAPQELEKKSIHLPEKSVPSERGLSPNNSGHDSTDTDSNHEERQNHIYQQNHMVLSRARNGMPLLKEVPRSYELLKPPPICPRDSVKVINKEGEVMDVYRCDHCRVLFLDYVMFTIHMGCHGFRDPFECNMCGYRSHDRYEFSSHIARGEHRALLK
B2: Heterogeneous nuclear ribonucleoprotein R (Homo sapiens), O43390 (parent)
chain: MANQVNGNAVQLKEEEEPMDTSSVTHTEHYKTLIEAGLPQKVAERLDEIFQTGLVAYVDLDERAIDALREFNEEGALSVLQQFKESDLSHVQNKSAFLCGVMKTYRQREKQGSKVQESTKGPDEAKIKALLERTGYTLDVTTGQRKYGGPPPDSVYSGVQPGIGTEVFVGKIPRDLYEDELVPLFEKAGPIWDLRLMMDPLSGQNRGYAFITFCGKEAAQEAVKLCDSYEIRPGKHLGVCISVANNRLFVGSIPKNKTKENILEEFSKVTEGLVDVILYHQPDDKKKNRGFCFLEYEDHKSAAQARRRLMSGKVKVWGNVVTVEWADPVEEPDPEVMAKVKVLFVRNLATTVTEEILEKSFSEFGKLERVKKLKDYAFVHFEDRGAAVKAMDEMNGKEIEGEEIEIVLAKPPDKKRKERQAARQASRSTAYEDYYYHPPPRMPPPIRGRGRGGGRGGYGYPPDYYGYEDYYDDYYGYDYHDYRGGYEDPYYGYDDGYAVRGRGGGRGGRGAPPPPRGRGAPPPRGRAGYSQRGAPLGPPRGSRGGRGGPAQQQRGRGSRGSRGNRGGNVGGKRKADGYNQPDSKRRQTNNQQNWGSQPIAQQPLQQGGDYSGNYGYNNDNQEFYQDTYGQQWK
B3: Zinc finger CCCH-type with G patch domain-containing protein (Homo sapiens), Q8N5A5 (parent)
chain: MDEESLESALQTYRAQLQQVELALGAGLDSSEQADLRQLQGDLKELIELTEASLVSVRKSSLLAALDEERPGRQEDAEYQAFREAITEAVEAPAAARGSGSETVPKAEAGPESAAGGQEEEEGEDEEELSGTKVSAPYYSSWGTLEYHNAMVVGTEEAEDGSAGVRVLYLYPTHKSLKPCPFFLEGKCRFKENCRFSHGQVVSLDELRPFQDPDLSSLQAGSACLAKHQDGLWHAARITDVDNGYYTVKFDSLLLREAVVEGDGILPPLRTEATESDSDSDGTGDSSYARVVGSDAVDSAQSSALCPSLAVVGSDAVDSGTCSSAFAGWEVHTRGIGSRLLTKMGYEFGKGLGRHAEGRVEPIHAVVLPRGKSLDQCVETLQKQTRVGKAGTNKPPRCRGRGARPGGRPAPRNVFDFLNEKLQGQAPGALEAGAAPAGRRSKDMYHASKSAKRALSLRLFQTEEKIERTQRDIRSIQEALARNAGRHSVASAQLQEKLAGAQRQLGQLRAQEAGLQQEQRKADTHKKMTEF
B4: Dickkopf-related protein 1 (Homo sapiens), O94907 (parent)
chain: MMALGAAGATRVFVAMVAAALGGHPLLGVSATLNSVLNSNAIKNLPPPLGGAAGHPGSAVSAAPGILYPGGNKYQTIDNYQPYPCAEDEECGTDEYCASPTRGGDAGVQICLACRKRRKRCMRHAMCCPGNYCKNGICVSSDQNHFRGEIEETITESFGNDHSTLDGYSRRTTLSSKMYHTKGQEGSVCLRSSDCASGLCCARHFWSKICKPVLKEGQVCTKHRRKGSHGLEIFQRCYCGEGLSCRIQKDHHQASNSSRLHTCQRH
B5: 60 kDa heat shock protein, mitochondrial (Homo sapiens), P10809 (parent)
chain: MLRLPTVFRQMRPVSRVLAPHLTRAYAKDVKFGADARALMLQGVDLLADAVAVTMGPKGRTVIIEQSWGSPKVTKDGVTVAKSIDLKDKYKNIGAKLVQDVANNTNEEAGDGTTTATVLARSIAKEGFEKISKGANPVEIRRGVMLAVDAVIAELKKQSKPVTTPEEIAQVATISANGDKEIGNIISDAMKKVGRKGVITVKDGKTLNDELEIIEGMKFDRGYISPYFINTSKGQKCEFQDAYVLLSEKKISSIQSIVPALEIANAHRKPLVIIAEDVDGEALSTLVLNRLKVGLQVVAVKAPGFGDNRKNQLKDMAIATGGAVFGEEGLTLNLEDVQPHDLGKVGEVIVTKDDAMLLKGKGDKAQIEKRIQEIIEQLDVTTSEYEKEKLNERLAKLSDGVAVLKVGGTSDVEVNEKKDRVTDALNATRAAVEEGIVLGGGCALLRCIPALDSLTPANEDQKIGIEIIKRTLKIPAMTIAKNAGVEGSLIVEKIMQSSSEVGYDAMAGDFVNMVEKGIIDPTKVVRTALLDAAGVASLLTTAEVVVTEIPKEEKDPGMGAMGGMGGGMGGGMF
partner: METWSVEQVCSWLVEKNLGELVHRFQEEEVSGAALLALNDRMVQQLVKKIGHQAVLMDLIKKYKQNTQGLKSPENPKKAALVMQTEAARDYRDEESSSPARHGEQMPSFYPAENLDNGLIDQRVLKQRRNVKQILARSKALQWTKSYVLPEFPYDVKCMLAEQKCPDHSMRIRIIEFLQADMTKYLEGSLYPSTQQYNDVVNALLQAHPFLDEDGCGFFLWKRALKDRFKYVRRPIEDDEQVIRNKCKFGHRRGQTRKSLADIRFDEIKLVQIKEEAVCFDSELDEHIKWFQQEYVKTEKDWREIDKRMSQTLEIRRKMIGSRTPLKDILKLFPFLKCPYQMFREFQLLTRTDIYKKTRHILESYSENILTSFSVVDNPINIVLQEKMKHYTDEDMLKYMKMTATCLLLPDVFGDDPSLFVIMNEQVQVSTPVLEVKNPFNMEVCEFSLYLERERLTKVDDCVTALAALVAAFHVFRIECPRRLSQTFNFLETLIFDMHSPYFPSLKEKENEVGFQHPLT
B6: Radial spoke head protein 3 homolog (Homo sapiens), Q86UC2 (parent)
chain: MTVKPAKAASLARNLAKRRRTYLGGAAGRSQEPEVPCAAVLPGKPGDRNCPEFPPPDRTLGCWATDAAPAAGLCGAGSEPSIAPTSCAGNLPSRPPPLLSPLLASRNPCPWHYLHLSGSHNTLAPTCFKAKLHRKRGSQPPDMASALTDRTSRAPSTYTYTSRPRALPCQRSRYRDSLTQPDEEPMHYGNIMYDRRVIRGNTYALQTGPLLGRPDSLELQRQREARKRALARKQAQEQLRPQTPEPVEGRKHVDVQTELYLEEIADRIIEVDMECQTDAFLDRPPTPLFIPAKTGKDVATQILEGELFDFDLEVKPVLEVLVGKTIEQSLLEVMEEEELANLRASQREYEELRNSERAEVQRLEEQERRHREEKERRKKQQWEIMHKHNETSQKIAARAFAQRYLADLLPSVFGSLRDSGYFYDPIERDIEIGFLPWLMNEVEKTMEYSMVGRTVLDMLIREVVEKRLCMYEHGEDTHQSPEPEDEPGGPGAMTESLEASEFLEQSMSQTRELLLDGGYLQRTTYDRRSSQERKFMEERELLGQDEETAMRKSLGEEELS
partner: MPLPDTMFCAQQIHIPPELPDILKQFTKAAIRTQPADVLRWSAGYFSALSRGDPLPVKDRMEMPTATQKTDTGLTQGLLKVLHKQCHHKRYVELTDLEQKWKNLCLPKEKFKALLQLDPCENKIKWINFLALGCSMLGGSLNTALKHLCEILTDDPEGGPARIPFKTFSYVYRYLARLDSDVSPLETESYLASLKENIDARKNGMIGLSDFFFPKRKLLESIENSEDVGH
B7: Dystrobrevin beta (Homo sapiens), O60941 (parent)
chain: MIEESGNKRKTMAEKRQLFIEMRAQNFDVIRLSTYRTACKLRFVQKRCNLHLVDIWNMIEAFRDNGLNTLDHTTEISVSRLETVISSIYYQLNKRLPSTHQISVEQSISLLLNFMIAAYDSEGRGKLTVFSVKAMLATMCGGKMLDKLRYVFSQMSDSNGLMIFSKFDQFLKEVLKLPTAVFEGPSFGYTEHSVRTCFPQQRKIMLNMFLDTMMADPPPQCLVWLPLMHRLAHVENVFHPVECSYCRCESMMGFRYRCQQCHNYQLCQNCFWRGHAGGPHSNQHQMKEHSSWKSPAKKLSHAISKSLGCVPTREPPHPVFPEQPEKPLDLAHIVPPRPLTNMNDTMVSHMSSGVPTPTKRLQYSQDIPSHLADEHALIASYVARLQHCARVLDSPSRLDEEHRLIARYAARLAAEAGNVTRPPTDLSFNFDANKQQRQLIAELENKNREILQEIQRLRLEHEQASQPTPEKAQQNPTLLAELRLLRQRKDELEQRMSALQESRRELMVQLEELMKLLKEEEQKQAAQATGSPHTSPTHGGGRPMPMPVRSTSAGSTPTHCPQDSLSGVGGDVQEAFAQGTRRNLRNDLLVAADSITNTMSSLVKELHSAEEGAEEEEEKMQNGKDRG

Variants of: B1
Conditions: with aakb2_human PRKAB2, O43741
Sequence of aakb2_human PRKAB2, O43741 (O43741 whole entry): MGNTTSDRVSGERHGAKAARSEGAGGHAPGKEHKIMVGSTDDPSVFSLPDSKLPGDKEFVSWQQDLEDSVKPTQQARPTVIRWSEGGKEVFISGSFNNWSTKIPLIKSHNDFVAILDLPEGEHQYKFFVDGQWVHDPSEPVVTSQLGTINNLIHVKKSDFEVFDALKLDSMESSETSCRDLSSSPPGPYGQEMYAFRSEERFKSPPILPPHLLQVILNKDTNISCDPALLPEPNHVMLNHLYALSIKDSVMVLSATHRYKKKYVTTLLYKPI

Row | Variant | effect of a mutation on the interaction
1 | N119D | with no effect

Variants of: B1
Conditions: with exoc8_human EXOC8, Q8IYI6

Row | Variant | effect of a mutation on the interaction
2 | N119D | with no effect

Variants of: B1
Conditions: with tb22b_human TBC1D22B

Row | Variant | effect of a mutation on the interaction
3 | N119D | with no effect

Variants of: B1
Conditions: with p85b_human PIK3R2, O00459
Sequence of p85b_human PIK3R2, O00459 (O00459 whole entry): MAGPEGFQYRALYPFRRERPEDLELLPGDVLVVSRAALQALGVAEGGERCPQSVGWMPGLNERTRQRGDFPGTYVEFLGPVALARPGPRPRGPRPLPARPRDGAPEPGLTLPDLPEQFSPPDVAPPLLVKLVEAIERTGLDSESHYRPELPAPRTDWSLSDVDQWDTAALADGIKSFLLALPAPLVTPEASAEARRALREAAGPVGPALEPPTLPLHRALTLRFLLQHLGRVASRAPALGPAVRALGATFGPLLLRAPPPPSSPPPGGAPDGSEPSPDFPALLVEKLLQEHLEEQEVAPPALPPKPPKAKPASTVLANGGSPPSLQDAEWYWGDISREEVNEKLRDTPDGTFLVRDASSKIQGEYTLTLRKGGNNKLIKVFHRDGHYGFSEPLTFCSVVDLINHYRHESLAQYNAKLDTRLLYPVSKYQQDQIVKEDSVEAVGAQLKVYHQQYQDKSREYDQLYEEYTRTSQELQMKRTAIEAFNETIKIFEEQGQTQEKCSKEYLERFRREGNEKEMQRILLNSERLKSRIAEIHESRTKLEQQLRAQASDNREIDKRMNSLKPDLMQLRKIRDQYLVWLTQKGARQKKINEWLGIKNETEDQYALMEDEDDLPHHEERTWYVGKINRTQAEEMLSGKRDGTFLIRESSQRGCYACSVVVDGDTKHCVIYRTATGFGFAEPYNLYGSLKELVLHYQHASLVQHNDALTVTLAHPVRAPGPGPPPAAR

Row | Variant | effect of a mutation on the interaction
4 | N119D | disrupting interaction strength

Variants of: B1
Conditions: with rpac1_human POLR1C

Row | Variant | effect of a mutation on the interaction
5 | N119D | with no effect

Variants of: B1
Conditions: with pfd5_human PFDN5, Q99471
Sequence of pfd5_human PFDN5, Q99471 (Q99471 whole entry): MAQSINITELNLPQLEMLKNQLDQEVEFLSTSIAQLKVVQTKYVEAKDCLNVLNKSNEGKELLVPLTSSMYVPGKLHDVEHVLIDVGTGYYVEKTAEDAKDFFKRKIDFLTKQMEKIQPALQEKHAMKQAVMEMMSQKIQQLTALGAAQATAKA

Row | Variant | effect of a mutation on the interaction
6 | N119D | with no effect

Variants of: B1
Conditions: with nek6_human NEK6, Q9HC98
Sequence of nek6_human NEK6, Q9HC98 (Q9HC98 whole entry): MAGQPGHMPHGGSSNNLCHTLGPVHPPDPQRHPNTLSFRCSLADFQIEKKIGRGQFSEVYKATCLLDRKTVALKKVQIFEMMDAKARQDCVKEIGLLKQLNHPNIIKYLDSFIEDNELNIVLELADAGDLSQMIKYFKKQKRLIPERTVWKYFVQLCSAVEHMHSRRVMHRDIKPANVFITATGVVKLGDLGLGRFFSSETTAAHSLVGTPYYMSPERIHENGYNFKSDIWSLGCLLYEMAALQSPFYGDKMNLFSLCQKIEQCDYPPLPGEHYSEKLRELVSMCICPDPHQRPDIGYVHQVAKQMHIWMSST

Row | Variant | effect of a mutation on the interaction
7 | N119D | with no effect

Variants of: B1
Conditions: with exos5_human EXOSC5, Q9NQT4
Sequence of exos5_human EXOSC5, Q9NQT4 (Q9NQT4 whole entry): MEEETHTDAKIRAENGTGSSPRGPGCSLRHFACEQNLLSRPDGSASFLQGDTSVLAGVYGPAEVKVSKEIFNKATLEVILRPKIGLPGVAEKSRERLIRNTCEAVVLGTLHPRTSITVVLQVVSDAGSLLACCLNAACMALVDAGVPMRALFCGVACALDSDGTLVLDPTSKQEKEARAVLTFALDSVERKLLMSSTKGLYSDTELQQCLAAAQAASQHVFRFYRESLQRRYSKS

Row | Variant | effect of a mutation on the interaction
8 | N119D | with no effect

Variants of: B1
Conditions: with tstd2_human TSTD2, Q5T7W7

Row | Variant | effect of a mutation on the interaction
9 | N119D | with no effect

Variants of: B2
Conditions: with anm1_human PRMT1, Q99873
Sequence of anm1_human PRMT1, Q99873 (Q99873 whole entry, looked up): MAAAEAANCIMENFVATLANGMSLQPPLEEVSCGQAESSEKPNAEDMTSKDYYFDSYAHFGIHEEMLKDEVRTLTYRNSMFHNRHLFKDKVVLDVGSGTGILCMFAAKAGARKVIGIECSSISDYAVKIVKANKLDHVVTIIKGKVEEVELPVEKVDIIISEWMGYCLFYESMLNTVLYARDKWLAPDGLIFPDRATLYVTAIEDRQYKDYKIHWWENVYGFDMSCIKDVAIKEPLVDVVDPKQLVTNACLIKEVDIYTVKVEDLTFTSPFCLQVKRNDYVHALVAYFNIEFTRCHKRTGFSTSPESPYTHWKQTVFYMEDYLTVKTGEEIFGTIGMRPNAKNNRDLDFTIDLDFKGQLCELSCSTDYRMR

Row | Variant | effect of a mutation on the interaction
10 | S530T | with no effect

Variants of: B3
Conditions: with tfp11_human TFIP11, Q9UBB9

Row | Variant | effect of a mutation on the interaction
11 | S61R | with no effect

Variants of: B3
Conditions: with cep70_human CEP70, Q8NHQ1
Sequence of cep70_human CEP70, Q8NHQ1 (Q8NHQ1 whole entry): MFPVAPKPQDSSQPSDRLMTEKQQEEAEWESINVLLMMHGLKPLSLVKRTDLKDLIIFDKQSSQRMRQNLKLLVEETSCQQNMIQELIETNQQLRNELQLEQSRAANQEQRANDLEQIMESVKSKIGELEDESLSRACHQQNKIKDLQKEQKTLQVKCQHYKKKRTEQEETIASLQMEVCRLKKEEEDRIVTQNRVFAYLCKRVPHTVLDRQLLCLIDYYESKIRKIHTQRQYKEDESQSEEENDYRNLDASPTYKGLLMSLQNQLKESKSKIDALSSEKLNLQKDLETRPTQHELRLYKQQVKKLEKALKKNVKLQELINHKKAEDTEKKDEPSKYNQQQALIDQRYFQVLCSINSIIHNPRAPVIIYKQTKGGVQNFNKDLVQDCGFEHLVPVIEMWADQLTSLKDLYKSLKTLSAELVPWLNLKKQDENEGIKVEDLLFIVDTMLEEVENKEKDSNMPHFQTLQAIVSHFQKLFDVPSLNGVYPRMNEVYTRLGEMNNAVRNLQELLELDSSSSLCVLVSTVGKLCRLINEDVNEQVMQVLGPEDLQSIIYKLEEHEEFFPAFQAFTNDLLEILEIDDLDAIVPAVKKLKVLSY

Row | Variant | effect of a mutation on the interaction
12 | S61R | with no effect

Variants of: B3
Conditions: with ldoc1_human LDOC1, O95751
Sequence of ldoc1_human LDOC1, O95751 (O95751 whole entry): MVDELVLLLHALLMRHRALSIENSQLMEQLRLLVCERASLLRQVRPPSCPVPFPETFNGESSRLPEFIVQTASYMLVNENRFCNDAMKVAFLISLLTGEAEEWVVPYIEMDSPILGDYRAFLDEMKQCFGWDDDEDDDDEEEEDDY

Row | Variant | effect of a mutation on the interaction
13 | S61R | with no effect

Variants of: B4
Conditions: with kr101_human KRTAP10-1, P60331
Sequence of kr101_human KRTAP10-1, P60331 (P60331 whole entry): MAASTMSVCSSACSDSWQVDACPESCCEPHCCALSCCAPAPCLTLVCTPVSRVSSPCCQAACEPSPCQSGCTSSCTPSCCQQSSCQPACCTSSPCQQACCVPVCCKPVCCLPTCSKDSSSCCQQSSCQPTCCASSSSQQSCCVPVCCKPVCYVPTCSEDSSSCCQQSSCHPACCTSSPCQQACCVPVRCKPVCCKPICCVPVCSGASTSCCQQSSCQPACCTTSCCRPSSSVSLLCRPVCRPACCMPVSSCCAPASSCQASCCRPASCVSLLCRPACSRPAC

Row | Variant | effect of a mutation on the interaction
14 | S207Y | with no effect

Variants of: B4
Conditions: with mdfi_human MDFI

Row | Variant | effect of a mutation on the interaction
15 | S207Y | with no effect

Variants of: B5
Conditions: with samd3_human SAMD3, Q8N6K7

Row | Variant | effect of a mutation on the interaction
16 | R142K | disrupting interaction strength
17 | R9G | with no effect

Variants of: B6
Conditions: with rop1l_human ROPN1L

Row | Variant | effect of a mutation on the interaction
18 | N201S | with no effect
19 | E484K | with no effect
20 | R213W | with no effect
21 | R213Q | with no effect
22 | G518D | with no effect
23 | R398Q | with no effect
24 | M439T | with no effect

Variants of: B7
Conditions: with cep63_human CEP63, Q96MT8
Sequence of cep63_human CEP63, Q96MT8 (Q96MT8 whole entry): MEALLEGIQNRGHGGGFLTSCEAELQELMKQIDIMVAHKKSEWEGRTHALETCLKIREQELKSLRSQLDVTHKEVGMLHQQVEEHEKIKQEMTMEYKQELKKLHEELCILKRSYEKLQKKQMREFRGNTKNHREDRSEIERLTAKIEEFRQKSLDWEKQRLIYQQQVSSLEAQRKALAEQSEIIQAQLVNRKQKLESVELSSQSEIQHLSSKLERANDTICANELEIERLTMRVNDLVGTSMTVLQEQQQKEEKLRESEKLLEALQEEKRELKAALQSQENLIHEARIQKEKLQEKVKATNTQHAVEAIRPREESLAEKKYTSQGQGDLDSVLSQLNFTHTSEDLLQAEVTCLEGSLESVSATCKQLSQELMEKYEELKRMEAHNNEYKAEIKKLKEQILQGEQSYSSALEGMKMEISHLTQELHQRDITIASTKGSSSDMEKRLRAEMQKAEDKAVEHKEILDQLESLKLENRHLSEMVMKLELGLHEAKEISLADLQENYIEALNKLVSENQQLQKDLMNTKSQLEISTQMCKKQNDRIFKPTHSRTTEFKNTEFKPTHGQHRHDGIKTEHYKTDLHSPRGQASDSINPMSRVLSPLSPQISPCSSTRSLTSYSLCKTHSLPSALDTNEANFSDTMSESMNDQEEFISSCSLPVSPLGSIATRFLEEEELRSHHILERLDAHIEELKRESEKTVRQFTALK

Row | Variant | effect of a mutation on the interaction
25 | R80H | with no effect

Variants of: B7
Conditions: with traf2_human TRAF2, Q12933
Sequence of traf2_human TRAF2, Q12933 (Q12933 whole entry): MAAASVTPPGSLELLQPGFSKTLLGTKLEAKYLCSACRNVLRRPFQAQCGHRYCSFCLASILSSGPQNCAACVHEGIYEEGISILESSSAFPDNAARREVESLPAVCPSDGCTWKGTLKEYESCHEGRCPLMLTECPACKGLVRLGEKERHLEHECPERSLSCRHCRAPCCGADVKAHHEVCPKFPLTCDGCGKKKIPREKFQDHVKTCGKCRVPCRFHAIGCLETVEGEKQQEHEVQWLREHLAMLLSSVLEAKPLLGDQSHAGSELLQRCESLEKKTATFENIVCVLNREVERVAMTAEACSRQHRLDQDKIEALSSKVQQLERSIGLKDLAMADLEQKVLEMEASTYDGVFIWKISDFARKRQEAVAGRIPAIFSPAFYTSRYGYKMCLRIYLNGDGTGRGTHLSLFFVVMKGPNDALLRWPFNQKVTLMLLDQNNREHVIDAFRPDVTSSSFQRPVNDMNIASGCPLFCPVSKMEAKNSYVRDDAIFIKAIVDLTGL

Row | Variant | effect of a mutation on the interaction
26 | R80H | with no effect

Variants of: B7
Conditions: with tera_human VCP

Row | Variant | effect of a mutation on the interaction
27 | R80H | with no effect

Variants of: B7
Conditions: with abi2_human ABI2, Q9NYB9
Sequence of abi2_human ABI2, Q9NYB9 (Q9NYB9 whole entry): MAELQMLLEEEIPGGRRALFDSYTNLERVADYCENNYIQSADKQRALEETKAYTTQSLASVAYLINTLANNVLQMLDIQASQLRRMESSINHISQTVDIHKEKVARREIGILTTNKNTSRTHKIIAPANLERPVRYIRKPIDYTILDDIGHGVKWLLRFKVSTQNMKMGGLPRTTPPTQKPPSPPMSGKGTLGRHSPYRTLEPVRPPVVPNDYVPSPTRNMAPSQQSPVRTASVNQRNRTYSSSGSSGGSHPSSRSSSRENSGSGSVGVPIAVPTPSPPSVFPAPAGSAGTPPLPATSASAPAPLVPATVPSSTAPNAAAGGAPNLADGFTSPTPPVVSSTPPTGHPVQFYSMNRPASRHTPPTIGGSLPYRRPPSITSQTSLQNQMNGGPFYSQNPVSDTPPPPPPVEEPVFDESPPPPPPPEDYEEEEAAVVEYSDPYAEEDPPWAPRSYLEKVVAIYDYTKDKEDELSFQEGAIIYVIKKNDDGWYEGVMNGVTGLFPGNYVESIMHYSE

Row | Variant | effect of a mutation on the interaction
28 | R80H | with no effect

Reference: IntAct's records for PubMed 31515488
